Reference: the supplement of paper PMC11865577

test system: TO-3-N3-2 (biotin conjugate); assay: pull-down binding Z-score (relative to library population); higher = stronger binding; conditions: RNA library: Library-2
Summary of the method: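 Cy5- or Cy3-end-labelled RNA library (1 μg) was heat-folded in phosphate/NaCl/KCl buffer and incubated 60 min at 25 °C with streptavidin beads carrying 100 pmol biotin-conjugated small molecule. After three washes, bound RNA was eluted in hot SDS and hybridised 20 h at 55.5 °C to a DNA barcode microarray. Binding was scored by subtracting a beads-only control, averaging barcoded replicate probes after dropping highest and lowest, and converting to a Z-score against library mean and standard deviation.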

Going from “GGGAAAGAAGUCCU [IAV_invivo_HA_4_Motif_8+IAV_invivo_HA_4_Motif_8]” to “GGGAAGAACACC [IAV_invivo_M1_M2_7_Motif_3+IAV_invivo_M1_M2_7_Motif_3]”, the “pull-down binding Z-score” value rises from -0.278 to 5.36e-05.

First: GGGAAGGCGAAAGACC [IAV_invivo_PA_3_Motif_21+IAV_invivo_PA_3_Motif_21]
Second: GGGAAUAUAAUCUC [IAV_invivo_NA_6_Motif_2+IAV_invivo_NA_6_Motif_2]
The “pull-down binding Z-score” value of the first is higher: 0.289 for the first, 0.038 for the second.

Compared with “GGGACUGAGAAUUAGCUCAUCCU [IAV_invivo_PB2_1_Motif_14+IAV_invivo_PB2_1_Motif_14]”, “GGGACUUAUGAUUAUCCC [IAV_invivo_HA_4_Motif_18+IAV_invivo_HA_4_Motif_18]” is higher in “pull-down binding Z-score” value: -0.318 for the first, 0.126 for the second.

First: GGGAGAGACGAACAGUCGAUUGCC [IAV_invivo_PB2_1_Motif_17+IAV_invivo_PB2_1_Motif_17]
Second: GGGAGAUAACAUUCC [IAV_invivo_M1_M2_7_Motif_7+IAV_invivo_M1_M2_7_Motif_7]
The “pull-down binding Z-score” value of the first is lower: -0.268 for the first, -0.0296 for the second.

Compared with “GGGAGAUUAAUGGUCCU [IAV_invivo_PB2_1_Motif_25+IAV_invivo_PB2_1_Motif_25]”, “GGGAGCAAACCC [IAV_invivo_PB1_2_Motif_31+IAV_invivo_PB1_2_Motif_31]” is lower in “pull-down binding Z-score” value: 0.00669 for the first, -0.259 for the second.

Compared with “GGGAGCUAUAAACAGCAGUCUCCC [IAV_invivo_HA_4_Motif_12+IAV_invivo_HA_4_Motif_12]”, “GGGAGUCUUCGAGCUCUC [IAV_invivo_NP_5_Motif_24+IAV_invivo_NP_5_Motif_24]” is lower in “pull-down binding Z-score” value: 0.213 for the first, -0.548 for the second.

Compared with GGGAUUAUCCU, “GGGCAAGCUGUCUCAAAUGUCC [IAV_invivo_PA_3_Motif_10+IAV_invivo_PA_3_Motif_10]” is higher in “pull-down binding Z-score” value: -0.465 for the first, -0.226 for the second.

First: GGGCCACUGCCAGAAGACAAUGAACCAAGUGGUUAUGCCC [IAV_invivo_PB1_2_Motif_5+IAV_invivo_PB1_2_Motif_5]
Second: GGGCCUCCCUGUUCUCAGCGGUCC [IAV_invivo_PA_3_Motif_11+IAV_invivo_PA_3_Motif_11]
The “pull-down binding Z-score” value of the first is higher: 0.0011 for the first, -0.456 for the second.

Going from “GGGCUAGAUUCCC [DMSMaPseq_invitro_SARS-CoV-2_Motif_228]” to “GGGCUCAGAAUAUGACUAUGUCAUAUUCACUCAAACCACUGAAACAGCUC [SHAPE_invitro_SARS-CoV-2_Motif_328]”, the “pull-down binding Z-score” value rises from -0.264 to 0.0239.

Compared with “GGGCUCAUACCC [IAV_invivo_HA_4_Motif_7+IAV_invivo_HA_4_Motif_7]”, “GGGCUGUGACCACUGAAGUGGCAUUUGGCCU [IAV_invivo_M1_M2_7_Motif_9+IAV_invivo_M1_M2_7_Motif_9]” is lower in “pull-down binding Z-score” value: 0.875 for the first, -0.255 for the second.

Going from “GGGGACGACCU [IAV_invivo_NA_6_Motif_17+IAV_invivo_NA_6_Motif_17]” to “GGGGAUCUAUCAGAUUCUGGCGAUCUACUCAACUGUCGCCAGUUCACUGGUGCUUUUGGUCUCC [IAV_invivo_HA_4_Motif_19+IAV_invivo_HA_4_Motif_19]”, the “pull-down binding Z-score” value rises from -0.417 to 0.123.

Compared with “GGGGCCGGGGCCGGGGCCGGGGCCGGGGCCGGGGCC [G4_r(GGGGCC)8]”, “GGGGCGUUUAUGCAACCC [IAV_invivo_PB1_2_Motif_33+IAV_invivo_PB1_2_Motif_33]” is lower in “pull-down binding Z-score” value: 4.66 for the first, -0.277 for the second.

First: GGGGCUGAGAAACCAAAGUUUC [IAV_invivo_PA_3_Motif_3+IAV_invivo_PA_3_Motif_3]
Second: GGGGUGAAGAGGAUACUUACCUG [U1snRNP5ss-12]
The “pull-down binding Z-score” value of the first is lower: 0.214 for the first, 0.365 for the second.

Going from “GGGGUGUACAUCAAUACUGCCUU [IAV_invivo_PA_3_Motif_19+IAV_invivo_PA_3_Motif_19]” to “GGGUACGACUUUGAAAGGGAGGGAUACUCUCUAGUCGGAAUAGACCC [IAV_invivo_NP_5_Motif_16+IAV_invivo_NP_5_Motif_16]”, the “pull-down binding Z-score” value rises from 0.332 to 0.439.

Compared with “GGGUAGGGUUUGGGGGAGAGCGUGGGCUGGGGUUCAGGGACA [pre-miRNA-1229_WT_FL]”, “GGGUAGGGUUUGGGGGAGAGUGUGGGCUGGGGUUCAGGGACA [pre-miRNA-1229_SNP_FL]” is lower in “pull-down binding Z-score” value: 8.09 for the first, 7.5 for the second.

Going from “GGGUAGUGGUGAGCAUUGACC [IAV_invivo_PB2_1_Motif_22+IAV_invivo_PB2_1_Motif_22]” to “GGGUCGGUUGCUCACAAGUCCUGCCUGCCUGCCU [IAV_invivo_NP_5_Motif_15+IAV_invivo_NP_5_Motif_15]”, the “pull-down binding Z-score” value falls from 0.601 to 0.184.

First: GGGUGGGUGGGUGGGUGGGUGGGU [G4_r(GGGU)6]
Second: GGGUGGGUGGGUGGGUGGGUGGGUGGGUGGGU [G4_r(GGGU)8]
The “pull-down binding Z-score” value of the first is higher: 10.9 for the first, 10.2 for the second.

Compared with “GGGUUGGGUUGGGUUGGGUUGGGUUGGGUU [G4_r(GGGUU)6]”, “GGGUUGGGUUGGGUUGGGUUGGGUUGGGUUGGGUUGGGUU [G4_r(GGGUU)8]” is higher in “pull-down binding Z-score” value: 10.1 for the first, 10.2 for the second.

First: GGGUUUACAAACAAUUUGAUACUUAUAACCU [DMSMaPseq_invitro_SARS-CoV-2_Motif_347]
Second: GGUAAAAUUGUUAAUAAUUGGUUGAAGCAGUUAAUUAAAGUUACACUUGUGUUCCUUUUUGUUGCUGCUAUUUUCUAUUUAAUAACACC [DMSMaPseq_invitro_SARS-CoV-2_Motif_156]
The “pull-down binding Z-score” value of the first is higher: -0.105 for the first, -0.271 for the second.

Going from “GGUAAUUAUACAGUUUCCUGUUUACC [DMSMaPseq_invitro_SARS-CoV-2_Motif_504]” to “GGUAAUUAUACAGUUUCCUGUUUACCUUUUACAAUUAAUUGCC [SHAPE_invitro_SARS-CoV-2_Motif_513]”, the “pull-down binding Z-score” value rises from -0.713 to 0.0742.

First: GGUACAACAACUUACAAAUUAAAUGUUGGUGAUUAUUUUGUGCU [SHAPE_invivo_SARS-CoV-2_Motif_319]
Second: GGUACAUUUACUUGUGCU [SHAPE_invivo_SARS-CoV-2_Motif_118]
The “pull-down binding Z-score” value of the first is higher: -0.134 for the first, -0.344 for the second.

Compared with “GGUACGUUAAUAGUUAAUAGCGUACUUCUUUUUCUUGCUUUCGUGGUAUUCUUGCUAGUUACACUAGCCAUCCUUACUGCGCUUCGAUUGUGUGCGUACU”, GGUCAAAUCAAUGAUAUGAUUUUAUC is lower in “pull-down binding Z-score” value: -0.0614 for the first, -0.505 for the second.

First: GGUCAGAAUGAUC [IAV_invivo_NP_5_Motif_12+IAV_invivo_NP_5_Motif_12]
Second: GGUCCAGAACAAACCCAAGGAAAUUUUGGGGACC
The “pull-down binding Z-score” value of the first is lower: -0.0405 for the first, 0.197 for the second.

Going from “GGUCCAGCAACAGCUCAAAUGGCC [IAV_invivo_PB1_2_Motif_29+IAV_invivo_PB1_2_Motif_29]” to “GGUCUAUAUGCC [SHAPE_invivo_SARS-CoV-2_Motif_218]”, the “pull-down binding Z-score” value rises from -0.356 to -0.349.

Compared with “GGUCUCCGACGGAGGCC [IAV_invivo_PB1_2_Motif_32+IAV_invivo_PB1_2_Motif_32]”, “GGUCUGCAGGACU [IAV_invivo_PA_3_Motif_27+IAV_invivo_PA_3_Motif_27]” is lower in “pull-down binding Z-score” value: -0.224 for the first, -0.237 for the second.

Going from “GGUGAAGGACGGGUCCAGUAGUUCGCUACUGUUGAGUAGAGUGUGAGCUCC [BabySpinach]” to “GGUGACAACAACC [IAV_invivo_M1_M2_7_Motif_11+IAV_invivo_M1_M2_7_Motif_11]”, the “pull-down binding Z-score” value falls from 0.648 to -0.31.

Going from “GGUGCUCCCAAGAGGGAAGCU [IAV_invivo_NP_5_Motif_18+IAV_invivo_NP_5_Motif_18]” to “GGUGGAAUUGGACGAUUCUACAUCCAAAUGUGCACC [IAV_invivo_NP_5_Motif_3+IAV_invivo_NP_5_Motif_3]”, the “pull-down binding Z-score” value falls from -0.165 to -0.333.

First: GGUGGCAAACCUUGUAUCAAAGUAGCCACU [SHAPE_invitro_SARS-CoV-2_Motif_216]
Second: GGUGGUAUUGUAGCUAUCGUAGUAACAUGCCUUGCC
The “pull-down binding Z-score” value of the first is lower: -0.373 for the first, -0.0179 for the second.

Compared with “GGUGUGGAUGGCAUGCC [IAV_invivo_NP_5_Motif_17+IAV_invivo_NP_5_Motif_17]”, “GGUGUUGCAGGAGCCUUAAAUAAGGCUACUAACAAUGCC [SHAPE_invivo_SARS-CoV-2_Motif_68]” is lower in “pull-down binding Z-score” value: -0.0718 for the first, -0.474 for the second.

Compared with “GGUGUUGUUGGAGAAGGUUCCGAAGGUCUUAAUGACAACCUUCUUGAAAUACUCC”, GGUGUUUAUUACC is lower in “pull-down binding Z-score” value: 0.0401 for the first, -0.382 for the second.

Compared with GGUGUUUUAACU, “GGUGUUUUAACUGCUGUGGUUAUACCUACUAAAAAGGCUGGUGGCACUACUGAAAUGCU” is higher in “pull-down binding Z-score” value: -0.285 for the first, -0.12 for the second.

Going from GGUUAUAAGAAACC to “GGUUCAACUCUCCCUAGGAGGUCUGGAGCC [IAV_invivo_NP_5_Motif_11+IAV_invivo_NP_5_Motif_11]”, the “pull-down binding Z-score” value rises from -0.849 to -0.309.
